Assay results reported in article PMC4137731.

Legend:
[1] = molecular target: KpSSBnStSSBc (K. pneumoniae subsp. pneumoniae MGH 78578 | S. enterica serovar Typhimurium LT2) (UniProt A6TGW7); test: SEC; purified protein (2 mg/mL) on Superdex 200 HR 10/30 in Buffer D (20 mM potassium phosphate, 1 mM EDTA, 100 mM NaCl, pH 7.0), 0.5 mL/min; calibrated with proteins of known molecular weight; oligomeric state from the native mass against the monomer mass
[2] = molecular target: KpSSBnPaSSBc (K. pneumoniae subsp. pneumoniae MGH 78578 | P. aeruginosa PAO1) (UniProt A6TGW7); test: as above

| Substance | stoichiometry N [1] | stoichiometry N [2] |
| --- | --- | --- |
| KpSSBnStSSBc (from UniProt A6TGW7 1-91; P0A2F6 92-176) | 4 |  |
| KpSSBnPaSSBc (from UniProt A6TGW7 1-91; P40947 91-165) |  | 4 |
